This note sets out measurements from US20140120557A1 (published 2014).

This assay concerns the target T1, 5C.C7 TCR (as measured by surface plasmon resonance) (mouse).
T1 construct: Kept apart from the TCR on cells because the SPR construct is not described
Briefly: SPR. (In general: SPR reads the build-up and loss of mass on a sensor chip optically.)

B1: MCC-I-Ek (peptide-MHC)
chain 1: ANERADLIAYLKQATK
chain 2: IKEEHTIIQAEFYLLPDKRGEFMFDFDGDEIFHVDIEKSETIWRLEEFAKFASFEAQGALANIAVDKANLDVMKERSNNTPDANVAPEVTVLSRSPVNLGEPNILICFIDKFSPPVVNVTWLRNGRPVTEGVSETVFLPRDDHLFRKFHYLTFLPSTDDFYDCEVDHWGLEEPLRKHWEFEEKTLLPETKE
chain 3: VRDSRPWFLEYCKSECHFYNGTQRVRLLVRYFYNLEENLRFDSDVGEFRAVTELGRPDAENWNSQPEFLEQKRAEVDTVCRHNYEIFDNFLVPRRVEPTVTVYPTKTQPLEHHNLLVCSVSDFYPGNIEVRWFRNGKEEKTGIVSTGLVRNGDWTFQTLVMLETVPQSGEVYTCQVEHPSLTDPVTVEWKAQSTSAQNK
As usually defined, the Kd is the equilibrium constant for the complex coming apart. Higher therefore signals weaker binding. For the molecule B1, the affinity, expressed as Kd, was 22.9 µM and the t1/2 was 5.77 s.
